Source: patent US20190161555A1 (ALLIGATOR BIOSCIENCE, published 2019)
Changes are numbered by the printed parent chain. Each block holds one binder with its values, some of them ahead of it.

Key:
murine OX40 = biological target: T1, murine OX40 (murine, UniProt P47741 20-211, limits assumed); assay: ELISA
T1 construct: also called mouse OX40
T1 sequence (looked up): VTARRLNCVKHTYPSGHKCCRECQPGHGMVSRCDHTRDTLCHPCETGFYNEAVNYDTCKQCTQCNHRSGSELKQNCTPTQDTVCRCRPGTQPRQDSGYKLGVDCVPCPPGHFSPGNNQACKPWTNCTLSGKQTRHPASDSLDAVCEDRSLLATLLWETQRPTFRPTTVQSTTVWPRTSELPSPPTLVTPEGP

CD40 (Ancell) = CD40 (Ancell) (UniProt P25942 21-193, limits assumed); assay: ELISA, CD40 coated
Chain of CD40 (Ancell) (P25942 21-193 limits assumed): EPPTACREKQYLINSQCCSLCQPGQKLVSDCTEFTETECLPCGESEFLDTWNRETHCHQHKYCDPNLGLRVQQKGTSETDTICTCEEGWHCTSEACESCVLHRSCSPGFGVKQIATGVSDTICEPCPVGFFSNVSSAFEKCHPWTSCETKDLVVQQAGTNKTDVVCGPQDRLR
Experimental: (§1) ELISA plates were coated with human OX40 (R&D Systems, 3388-OX), CD40 (Ancell), or CD137 (R&D Systems) at 0.1 or 0.5 μg/ml. The ELISA plates were washed with PBST and then blocked with PBST+2% BSA for 1 h at room temperature and then washed again with PBST. The antibodies were added in dilution series to the ELISA plates for 1 h at room temperature and then washed with PBST. Binding was detected using goat anti human kappa light chain HRP, incubated for 1 h at room temperature. SuperSignal Pico Luminescent was used as substrate and luminescence was measured using Fluostar Optima.

CD137 (R&D Systems) = CD137 (R&D Systems) (UniProt Q07011 24-186, limits assumed); assay: ELISA, CD137 coated
Chain of CD137 (R&D Systems) (Q07011 24-186 limits assumed): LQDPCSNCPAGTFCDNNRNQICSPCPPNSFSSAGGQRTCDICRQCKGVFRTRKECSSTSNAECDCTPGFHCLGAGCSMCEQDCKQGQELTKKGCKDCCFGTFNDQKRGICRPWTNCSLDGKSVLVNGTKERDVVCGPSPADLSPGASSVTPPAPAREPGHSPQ
Experimental: as §1

[1] = biological target: T2, Human OX40 (R&D Systems, 3388-OX) (human, UniProt P43489 29-216); assay: ELISA, plates coated with human OX40, IgG
T2 construct: bought; also called OX40-Fc; Human OX40 (R&D systems, #3358_OX)
T2 sequence (looked up): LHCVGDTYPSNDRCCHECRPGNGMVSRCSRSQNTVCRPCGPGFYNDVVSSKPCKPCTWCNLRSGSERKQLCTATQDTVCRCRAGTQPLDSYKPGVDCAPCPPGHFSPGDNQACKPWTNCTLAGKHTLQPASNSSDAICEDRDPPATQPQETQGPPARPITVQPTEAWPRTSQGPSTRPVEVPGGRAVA
Experimental: as §1

[2] = biological target: T3, Construct 84: full length OX40 (human, UniProt P43489 29-277); assay: flow cytometry, 293-F cells transfected with the construct
T3 construct: whole, on cells
T3 sequence (looked up): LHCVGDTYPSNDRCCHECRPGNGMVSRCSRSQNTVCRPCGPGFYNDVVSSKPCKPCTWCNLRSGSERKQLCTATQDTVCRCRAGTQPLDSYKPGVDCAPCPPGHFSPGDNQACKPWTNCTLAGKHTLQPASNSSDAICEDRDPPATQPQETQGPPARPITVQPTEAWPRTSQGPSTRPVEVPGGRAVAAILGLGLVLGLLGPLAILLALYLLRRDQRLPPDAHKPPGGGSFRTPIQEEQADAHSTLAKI
Experimental: The transfected cells were incubated with human OX40 antibodies, human OX40L (hOX40L, RnD Systems), mouse OX40L (mOX40L, RnD Systems) and controls for 30 min 4° C. and then detected with a-huIgG-PE (Jackson Immunoresearch) 30 min 4° C. Cells were analyzed with FACS Verse (BD Biosciences). Binding to the different chimeric constructs were calculated as relative (mean fluorescence intensity) MFI compared to the binding of the isotype control.

[3] = biological target: Macaca mulatta OX40 on HEK cells (Macaca mulatta; human); assay: flow cytometry, macOX40-HEK cells; ends of the 95% confidence interval
Experimental: For the assay, the transfected cells were incubated with the test antibodies and controls for 30 min at 4° C. and then detected with a-huIgG-PE (Jackson Immunoresearch) 30 min 4° C. Cells were analyzed by flow cytometry with FACS Verse (BD Biosciences).

[4] = biological target: T4, human OX40 overexpressed on CHO cells (human, UniProt P43489 29-214; P25942 194-277); assay: flow cytometry, cells with human OX40; ends of the 95% confidence interval
T4 construct: extracellular domain;domain: transmembrane and intracellular part; also called hOX40; huOX40 (CHO)
T4 sequence (looked up): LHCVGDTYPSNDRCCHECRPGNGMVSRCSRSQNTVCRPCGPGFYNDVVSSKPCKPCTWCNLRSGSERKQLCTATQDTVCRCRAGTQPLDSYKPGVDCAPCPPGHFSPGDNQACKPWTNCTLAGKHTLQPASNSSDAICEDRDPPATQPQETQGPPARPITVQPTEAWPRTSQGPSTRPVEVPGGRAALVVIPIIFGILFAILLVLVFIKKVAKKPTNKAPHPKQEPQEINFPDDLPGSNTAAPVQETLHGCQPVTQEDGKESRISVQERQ

[5] = biological target: T2, Human OX40 (R&D Systems, 3388-OX); assay: SPR Biacore, human OX40 amine-coupled on CM5, antibody injected, 1:1 Langmuir
Experimental: Human OX40 (R&D systems, #3358_OX) was immobilized to the Biacore™ sensor chip, CM5, using conventional amine coupling. The tested antibodies and controls (serially diluted 1/3 or 1/2 100-2 nM) were analyzed for binding in HBS-P (GE, #BR-1003-68) at a flow rate of […]. The association was followed for 3 minutes and the dissociation for 20 minutes. Regeneration was performed twice using 50 mM NaOH for 60 seconds. The kinetic parameters and the affinity constants were calculated using 1:1 Langmuir model with drifting baseline. […] The kinetic parameters and the affinity constants were calculated using BIAevaluation 4.1 software.

binding result (murine OX40): no binding
binding result (CD40 (Ancell)): no binding
binding result (CD137 (R&D Systems)): no binding
EC50 [1]: < 1 nM
relative MFI [2]: 29.6 fold over isotype control
EC50 [3]: 0.0905 to 0.194 µg/mL
EC50 [4]: 0.0636 to 0.131 µg/mL
Kd [5]: 0.327 nM
koff [5]: 0.000169 s⁻¹
kon [5]: 518000 M⁻¹ s⁻¹
B1: 1168/1135 (antibody, V domains shown)
VH: EVQLLESGGGLVQPGGSLRLSCAASGFTFSGSSMSWVRQAPGKGLEWVSSISYYGGYTYYADSVKGRFTISRDNSKNTLYLQMNSLRAEDTAVYYCARYFPHYYFDYWGQGTLVTVSS
VL: not shown
notes: OX40 antibody, tested as IgG

binding result (murine OX40): no binding
binding result (CD40 (Ancell)): no binding
binding result (CD137 (R&D Systems)): no binding
B2: 1490/1135 (antibody, V domains shown)
VH: B1 VH with G31S, S32Y, S33A, S50G, F100Y, Y103H, F105I
VL: not shown
notes: OX40 antibody, tested as IgG

binding result (murine OX40): no binding
binding result (CD40 (Ancell)): no binding
binding result (CD137 (R&D Systems)): no binding
EC50 [1]: < 1 nM
relative MFI [2]: 29.4 fold over isotype control
EC50 [3]: 0.722 to 1.41 µg/mL
EC50 [4]: 0.322 to 0.552 µg/mL
Kd [5]: 0.463 nM
koff [5]: 0.0001 s⁻¹
kon [5]: 216000 M⁻¹ s⁻¹
B3: 1542/1135 (antibody, V domains shown)
VH: EVQLLESGGGLVQPGGSLRLSCAASGFTFGSSSMYWVRQAPGKGLEWVSGIGYYSYSTSYADSVKGRFTISRDNSKNTLYLQMNSLRAEDTAVYYCARGYPHHYFDYWGQGTLVTVSS
VL: not shown
notes: OX40 antibody, tested as IgG

binding result (murine OX40): no binding
binding result (CD40 (Ancell)): no binding
binding result (CD137 (R&D Systems)): no binding
B4: 1170/1171 (antibody, V domains shown)
VH: EVQLLESGGGLVQPGGSLRLSCAASGFTFGGYYMSWVRQAPGKGLEWVSYIPGSGGSTYYADSVKGRFTISRDNSKNTLYLQMNSLRAEDTAVYYCARYDYYWMDYWGQGTLVTVSS
VL: DIQMTQSPSSLSASVGDRVTITCRASQSISSYLNWYQQKPGKAPKLLIYAASSLQSGVPSRFSGSGSGTDFTLTISSLQPEDFATYYCQQGHGSYPHTFGQGTKLEIK
notes: OX40 antibody, tested as IgG

binding result (murine OX40): no binding
binding result (CD40 (Ancell)): no binding
binding result (CD137 (R&D Systems)): no binding
EC50 [1]: < 1 nM
relative MFI [2]: 21.4 fold over isotype control
EC50 [3]: 0.292 to 0.589 µg/mL
EC50 [4]: 0.172 to 0.429 µg/mL
Kd [5]: 0.43 nM
koff [5]: 0.000187 s⁻¹
kon [5]: 435000 M⁻¹ s⁻¹
B5: 1526/1527 (antibody, V domains shown)
VH: EVQLLESGGGLVQPGGSLRLSCAASGFTFSGYSMYWVRQAPGKGLEWVSGIGYSGYGTYYADSVKGRFTISRDNSKNTLYLQMNSLRAEDTAVYYCARYYFHDYAAYSLDYWGQGTLVTVSS
VL: B4 VL with G91Y, H92G, G93S, S94D, Y95S, P96L, H97L
notes: OX40 antibody, tested as IgG

binding result (murine OX40): no binding
binding result (CD40 (Ancell)): no binding
binding result (CD137 (R&D Systems)): no binding
B6: 1514/1515 (antibody, V domains shown)
VH: EVQLLESGGGLVQPGGSLRLSCAASGFTFGYYYMSWVRQAPGKGLEWVSGISSYGSYTYYADSVKGRFTISRDNSKNTLYLQMNSLRAEDTAVYYCARSGYSNWANSFDYWGQGTLVTVSS
VL: DIQMTQSPSSLSASVGDRVTITCRASQSISSYLNWYQQKPGKAPKLLIYAASSLQSGVPSRFSGSGSGTDFTLTISSLQPEDFATYYCQQGDYTLFTFGQGTKLEIK
notes: OX40 antibody, tested as IgG

binding result (murine OX40): no binding
binding result (CD40 (Ancell)): no binding
binding result (CD137 (R&D Systems)): no binding
EC50 [1]: < 1 nM
relative MFI [2]: 24.9 fold over isotype control
EC50 [3]: 0.157 to 0.312 µg/mL
EC50 [4]: 0.082 to 0.182 µg/mL
Kd [5]: 0.753 nM
koff [5]: 0.000584 s⁻¹
kon [5]: 776000 M⁻¹ s⁻¹
B7: 1482/1483 (antibody, V domains shown)
VH: EVQLLESGGGLVQPGGSLRLSCAASGFTFSSYAMSWVRQAPGKGLEWVSYISYYSGYTYYADSVKGRFTISRDNSKNTLYLQMNSLRAEDTAVYYCARGYGYLDYWGQGTLVTVSS
VL: DIQMTQSPSSLSASVGDRVTITCRASQSISSYLNWYQQKPGKAPKLLIYAASSLQSGVPSRFSGSGSGTDFTLTISSLQPEDFATYYCQQYGSLLTFGQGTKLEIK
notes: OX40 antibody, tested as IgG
